Experimental data: US12655208 (PARAGON THERAPEUTICS, dated 2026)

T1: Recombinant Human IL-23 (human, UniProt Q9NPF7 20-189; P29460 23-328)
T1 sequence (looked up) 1: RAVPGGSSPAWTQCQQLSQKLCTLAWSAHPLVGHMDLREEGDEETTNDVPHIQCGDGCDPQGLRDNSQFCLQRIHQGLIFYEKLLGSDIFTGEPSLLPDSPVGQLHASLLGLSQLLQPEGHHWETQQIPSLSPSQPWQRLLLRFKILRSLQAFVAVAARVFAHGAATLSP
T1 sequence (looked up) 2: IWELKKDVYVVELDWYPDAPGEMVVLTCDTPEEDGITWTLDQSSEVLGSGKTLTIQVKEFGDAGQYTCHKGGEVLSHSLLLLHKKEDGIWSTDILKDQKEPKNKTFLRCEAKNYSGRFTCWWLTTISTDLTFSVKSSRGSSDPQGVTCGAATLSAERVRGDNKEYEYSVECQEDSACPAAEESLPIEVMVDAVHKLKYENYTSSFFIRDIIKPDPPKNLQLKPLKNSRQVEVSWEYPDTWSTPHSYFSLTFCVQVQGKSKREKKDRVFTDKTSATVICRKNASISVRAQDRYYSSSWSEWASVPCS


Tests used:
Recombinant Human IL-23 [1] = target: T1, Recombinant Human IL-23; assay: cell-based or functional assay
Recombinant Human IL-23 [2] = target: T1, Recombinant Human IL-23; assay: SPR (Biacore 8K), mAb captured on anti-human IgG, hIL-23 as analyte, 25 °C
Method: Binding affinities (K_D) of antibodies to human IL-23 (generated as described in Examples 1-3) were determined through surface plasmon resonance (SPR) using a BIA-CORE™ 8K SPR system (Cytiva). […] Anti-IL23 mAb constructs (diluted to 2 µg/mL) were captured onto flow cell 2 (active) for 60 sec at a flow rate of 10 µL/min. Recombinant Human IL-23 was prepared at concentrations of 0, 1.23, 3.7, 11.11, 33.33, 100 nM and injected over flow cell 1 (reference) and flow cell 2 (active) for 180 sec at a flow rate of 50 µL/min. Samples were injected in a multi-cycle manner over freshly captured mAb, by regenerating the capture surfaces with injection of 10 mM glycine, pH 1.5 for 30 sec at a flow rate of 30 µL/min. A 1:1 kinetic binding model was utilized to determine the apparent association (ka) and dissociation rate constants (kd). Their ratio provides the apparent equilibrium dissociation constant or affinity constant (K_D=kd/ka).

Recombinant Human IL-23 [3] = target: T1, Recombinant Human IL-23; assay: cell-based or functional assay; remark: listed apart in the source
Recombinant Human IL-23 [4] = target: T1, Recombinant Human IL-23; assay: cell-based or functional assay; remark: listed apart in the source

IC50, inhibition of STAT3 activity and phosphorylation (Recombinant Human IL-23 [1]) [nM]	koff (Recombinant Human IL-23 [2]) [s⁻¹]	kon (Recombinant Human IL-23 [2]) [M⁻¹ s⁻¹]	Relative IC50, inhibition of IL-23-induced STAT3 activation (luciferase reporter, HEK 293F IL-23R+/IL-12Rβ1+) (Recombinant Human IL-23 [3])	Relative IC50, inhibition of IL-23-induced phosphorylation of STAT3 in DB cells (pSTAT3 ELISA) (Recombinant Human IL-23 [4])	Binder
< 1	< 1e-06	266000	0.64 relative to Reference Antibody 1		Clone MAb002 (antibody, human IgG1, kappa, L234A L235A, V domains shown, Described as an extended half-life humanized IgG1 monoclonal antibody) VH: EVQLLESGGGLVQPGGSLRLSCAASGYTFTDQTIHWVRQAPGKGLEWIGYIYPRDDSPKYNENFKGRATLSADNSKNTAYLQMNSLRAEDTAVYYCAIPDRSGYAWFIYWGQGTTVTVSS VL: EIVMTQSPATLSVSPGERATLSCKASRDVAIAVAWYQQKPGQAPRLLLFWASTRHTGIPARFSGSGSRTEFTLTISSLQSEDFAVYYCHQYSSYPFTFGGGTKVEIKR
	< 1e-06	167000	1 relative to Reference Antibody 1	1 relative to Reference Antibody 1	Reference Antibody 1 (antibody, human IgG1, kappa, L234A L235A, V domains shown, Human IgG1 with LALA; also called parental anti-human IL-23p19 antibody) VH: QVQLVQSGAEVKKPGSSVKVSCKASGYTFTDQTIHWMRQAPGQGLEWIGYIYPRDDSPKYNENFKGKVTITADKSTSTAYMELSSLRSEDTAVYYCAIPDRSGYAWFIYWGQGTLVTVSS VL: DIQMTQSPSSLSASVGDRVTITCKASRDVAIAVAWYQQKPGKVPKLLIYWASTRHTGVPSRFSGSGSRTDFTLTISSLQPEDVADYFCHQYSSYPFTFGSGTKLEIKR
	< 1e-06	247000	0.409 relative to Reference Antibody 1		Clone MAb004 (antibody, human IgG1, V domains shown, Tested in full antibody format; The printed constant part is human IgG1 with LALA/YTE) VH: QVQLVQSGAEVKKPGSSVKVSCKASGYTFTAQTMHWMRQAPGQGLEWIGYIYPRDGSTKYNENFKGKVTITADKSTSTAYMELSSLRSEDTAVYYCAIPDRSGYAWFIVWGQGTLVTVSS VL: EIVMTQSPATLSVSPGERATLSCKASRDVAIAVAWYQQKPGQAPRLLLFWASTRHTGIPARFSGSGSRTEFTLTISSLQSEDFAVYYCHQYSSYPFTFGGGTKVEIK
	< 1e-06	151000	0.612 relative to Reference Antibody 1	0.573 relative to Reference Antibody 1	Clone MAb001 (antibody, human IgG1, kappa, L234A L235A, V domains shown) VH: QVQLVQSGAEVKKPGSSVKVSCKASGYTFTTQTLHWMRQAPGQGLEWIGYIYPRDGSTKYNENFKGKVTITADKSTSTAYMELSSLRSEDTAVYYCAIPDRSGYAWFQHWGQGTLVTVSS VL: DIQMTQSPSSLSASVGDRVTITCKASRDVAIAVAWYQQKPGKVPKLLIYWASTRHTGVPSRFSGSGSRTDFTLTISSLQPEDVADYFCHQYSSYPFTFGSGTKLEIKR
	< 1e-06	164000	0.868 relative to Reference Antibody 1	0.799 relative to Reference Antibody 1	Clone MAb003 (antibody, V domains shown) VH: QVQLVQSGAEVKKPGSSVKVSCKASGYTFTSQTMHWMRQAPGQGLEWIGYIYPRDDYPKYNDNFKGKVTITADKSTSTAYMELSSLRSEDTAVYYCAIPDRSGYAWFIHWGQGTLVTVSS VL: DIQMTQSPSSLSASVGDRVTITCKASRDVAIAVAWYQQKPGKVPKLLIYWASTRHTGVPSRFSGSGSRTDFTLTISSLQPEDVADYFCHQYSSYPFTFGSGTKLEIKR
